The numbers were not newly measured in publication PMC3824636, which cites them from elsewhere.

What is called pKa is the negative logarithm of the acid dissociation constant.

Series [1] deals with Cys149 (UniProt position 156, VSNASCTTNCL). The series is described as follows: chemical modification or UV-vis (listed collectively, not mapped to individual values). The conditions noted are these: not stated (apo or holo not specified).
Series [2] deals with Cys149 (UniProt position 150, VSNASCTTNCL). Described as above. The settings on record: not stated (apo or holo not specified).
Series [3] concerns the target Cys149 (UniProt position 152, ISNASCTTNCL). The series is described as above. The conditions noted are these: not stated (apo or holo not specified).
Series [4] deals with Cys302. Nature of the series: chemical modification (described only as 'titration of Cys-302').

On to “Cytoplasmic glyceraldehyde-3-phosphate dehydrogenase GAPC1 (Arabidopsis thaliana)”, for which, in series [1], the pKa was 5.7.

Turning to “Glyceraldehyde-3-phosphate dehydrogenase (GAPDH) (Escherichia coli)”, the pKa in series [2] was approximately 5.7.

Take “Glyceraldehyde-3-phosphate dehydrogenase (GAPDH) (Geobacillus stearothermophilus (Bacillus stearothermophilus))”: in series [3], the pKa was 5.9.

Consider “Glyceraldehyde-3-phosphate dehydrogenase (GAPDH), pig liver as stated (Sus scrofa)”, for which, in series [2], the pKa is reported as 5.5.

As for “Non-phosphorylating NADP-dependent glyceraldehyde-3-phosphate dehydrogenase (GAPN) (Streptococcus mutans)”, the figures for the pKa in series [4] (NADP+-bound (holo-enzyme)) and in series [4] (apo-enzyme (no cofactor)) were 6.1 and 8.5, respectively.
